B1: AKTβ PH domain, human AKTβ PH(1–118) (domain or fragment, UniProt P31751 1-118, looked up)
chain: MNEVSVIKEGWLHKRGEYIKTWRPRYFLLKSDGSFIGYKERPEAPDQTLPPLNNFSVAECQLMKTERPRPNTFVIRCLQWTTVIERTFHVDSPDEREEWMRAIQMVANSLKQRAPGED

Tests used:
[1] = biological target: all-cysteine-to-serine (7CS) mutant of the IκBα ankyrin domain, IκB(67–302)7CS (human) (UniProt P25963); assay: ITC; TCL1A (470 µM) injected into IκB_ank^7CS (45 µM) in the cell; 20°C; 10 mM Tris pH 7.4, 300 mM NaCl, 1 mM β-mercapto ethanol
[2] = biological target: T1, T cell leukaemia/lymphoma 1A (TCL1A), purified recombinant human protein (human, UniProt P56279 1-114); assay: ITC; AKT_PH (490 µM) injected into TCL1A (40 µM) or into equimolar TCL1A and IκB_ank^7CS in the cell; 20°C; 20 mM sodium phosphate pH 7.1, 300 mM NaCl, 2 mM EGTA, 1 mM β-mercapto ethanol; details: both partners purified
T1 construct: TCL1A, human; 7 N-terminal residues are not seen in the crystal structure 1JSG
T1 sequence (P56279 whole entry): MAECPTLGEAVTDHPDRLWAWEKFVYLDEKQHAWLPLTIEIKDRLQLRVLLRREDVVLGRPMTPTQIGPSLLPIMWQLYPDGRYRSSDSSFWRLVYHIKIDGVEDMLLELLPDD

[3] = biological target: 1:1 TCL1A:IκB_ank^7CS complex (human) (UniProt P56279); assay: as above

Molecule | dH [1] | stoichiometry N [1] | dH [2] | stoichiometry N [2] | Kd [3] | dH [3] | stoichiometry N [3]
T cell leukaemia/lymphoma 1A (TCL1A), purified recombinant human protein (from UniProt P56279 1-114) (natural protein) | -12.7 kcal/mol | 0.9 | – | – | – | – | –
B1 | – | – | -14.6 ± 0.598 kcal/mol | 0.7 ± 0.3 | 5.1 µM | -9.32 kcal/mol | 0.7
